Test results reported in PMC11846989 (Communications Biology, 2025).

B1: human GBP2 G domain (1-309), wild type (domain or fragment, UniProt P32456 1-309, looked up)
chain: MAPEINLPGPMSLIDNTKGQLVVNPEALKILSAITQPVVVVAIVGLYRTGKSYLMNKLAGKKNGFSLGSTVKSHTKGIWMWCVPHPKKPEHTLVLLDTEGLGDIEKGDNENDSWIFALAILLSSTFVYNSMGTINQQAMDQLHYVTELTDRIKANSSPGNNSVDDSADFVSFFPAFVWTLRDFTLELEVDGEPITADDYLELSLKLRKGTDKKSKSFNDPRLCIRKFFPKRKCFVFDWPAPKKYLAHLEQLKEEELNPDFIEQVAEFCSYILSHSNVKTLSGGIPVNGPRLESLVLTYVNAISSGDLPC
B2: full-length human GBP2 (guanylate-binding protein 2), wild type (natural protein, UniProt P32456 1-591, looked up)
chain: MAPEINLPGPMSLIDNTKGQLVVNPEALKILSAITQPVVVVAIVGLYRTGKSYLMNKLAGKKNGFSLGSTVKSHTKGIWMWCVPHPKKPEHTLVLLDTEGLGDIEKGDNENDSWIFALAILLSSTFVYNSMGTINQQAMDQLHYVTELTDRIKANSSPGNNSVDDSADFVSFFPAFVWTLRDFTLELEVDGEPITADDYLELSLKLRKGTDKKSKSFNDPRLCIRKFFPKRKCFVFDWPAPKKYLAHLEQLKEEELNPDFIEQVAEFCSYILSHSNVKTLSGGIPVNGPRLESLVLTYVNAISSGDLPCMENAVLALAQIENSAAVEKAIAHYEQQMGQKVQLPTETLQELLDLHRDSEREAIEVFMKNSFKDVDQMFQRKLGAQLEARRDDFCKQNSKASSDCCMALLQDIFGPLEEDVKQGTFSKPGGYRLFTQKLQELKNKYYQVPRKGIQAKEVLKKYLESKEDVADALLQTDQSLSEKEKAIEVERIKAESAEAAKKMLEEIQKKNEEMMEQKEKSYQEHVKQLTEKMERDRAQLMAEQEKTLALKLQEQERLLKEGFENESKRLQKDIWDIQMRSKSLEPICNIL

Experiments:
SEC = molecular target: the molecule itself; assay: SEC
SEC-MALS = molecular target: the molecule itself; assay: SEC-MALS

Protein	stoichiometry N (SEC)	stoichiometry N (SEC-MALS)
B1	2	
B2		2
